Literature values, collected in paper PMC9221339.

Target: IGF-II (Homo sapiens) (UniProt P01344)
Sequence (P01344 25-91): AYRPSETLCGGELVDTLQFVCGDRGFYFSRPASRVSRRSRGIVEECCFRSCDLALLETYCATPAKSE

IGF-1R, sequence (P08069 31-736): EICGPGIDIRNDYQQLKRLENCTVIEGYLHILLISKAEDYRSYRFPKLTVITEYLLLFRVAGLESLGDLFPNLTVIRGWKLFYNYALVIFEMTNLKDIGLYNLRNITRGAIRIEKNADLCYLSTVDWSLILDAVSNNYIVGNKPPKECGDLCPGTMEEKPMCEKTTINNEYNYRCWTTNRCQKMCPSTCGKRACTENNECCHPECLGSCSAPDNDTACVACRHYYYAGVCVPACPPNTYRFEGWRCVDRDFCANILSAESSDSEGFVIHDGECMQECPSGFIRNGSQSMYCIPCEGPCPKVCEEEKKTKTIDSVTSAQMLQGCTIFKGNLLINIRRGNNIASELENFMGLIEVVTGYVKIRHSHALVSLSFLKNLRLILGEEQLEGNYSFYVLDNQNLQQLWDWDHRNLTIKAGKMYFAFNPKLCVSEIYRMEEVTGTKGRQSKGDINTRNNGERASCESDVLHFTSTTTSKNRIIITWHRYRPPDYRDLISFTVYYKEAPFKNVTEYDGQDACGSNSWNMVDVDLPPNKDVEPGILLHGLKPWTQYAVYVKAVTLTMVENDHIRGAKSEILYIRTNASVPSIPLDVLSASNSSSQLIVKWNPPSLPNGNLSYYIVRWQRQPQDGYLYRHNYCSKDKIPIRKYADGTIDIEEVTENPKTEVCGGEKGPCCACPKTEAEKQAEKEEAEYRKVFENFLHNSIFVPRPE
IGF-1R, sequence (P08069 741-935): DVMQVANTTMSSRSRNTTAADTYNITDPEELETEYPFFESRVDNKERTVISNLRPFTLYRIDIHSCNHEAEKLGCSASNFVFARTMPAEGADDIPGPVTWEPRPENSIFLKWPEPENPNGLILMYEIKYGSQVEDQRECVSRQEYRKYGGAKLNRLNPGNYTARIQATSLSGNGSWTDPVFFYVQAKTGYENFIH

## IGF-1R (from UniProt P08069)
  Kd: 3 nM
